Reference: patent US20080318857A1 (MEDICAL COLLEGE OF GEORGIA RESEARCH INSTITUTE, published 2008)

Molecular target: T1, VEGFR-2 (KDR), endogenous in A375 human malignant melanoma cells (human, UniProt P35968 20-1356, limits assumed)
T1 construct: Endogenous protein in cell lysate; also called Flk
Experiment: co-immunoprecipitation: anti-FLT IP of transfected hypoxic A375 cell fraction, Western blot with anti-VEGFR-2
Procedure: HMMCs transfected with pCMV.Flt23K or pCMV.Flt24K were subjected to hypoxia 48 hours after transfection. Two days later, the cellular fraction was immunoprecipitated with anti-FLT antibody (epitope specific for domains 2 and 3; Santa Cruz, Calif.) and subsequently underwent Western blotting with an anti-VEGF or an anti-VEGFR-2 antibody. A 50 kDa band (consistent with a VEGF homodimer interacting with the intraceptor) was detected in cells transfected with pCMV.Flt23K or pCMV.Flt24K (FIG. 5A). A 30 kDa band was present in cells transfected with pCMV.Flt24K but not pCMV.Flt23K (FIG. 5B).

T1 sequence (P35968 20-1356 limits assumed): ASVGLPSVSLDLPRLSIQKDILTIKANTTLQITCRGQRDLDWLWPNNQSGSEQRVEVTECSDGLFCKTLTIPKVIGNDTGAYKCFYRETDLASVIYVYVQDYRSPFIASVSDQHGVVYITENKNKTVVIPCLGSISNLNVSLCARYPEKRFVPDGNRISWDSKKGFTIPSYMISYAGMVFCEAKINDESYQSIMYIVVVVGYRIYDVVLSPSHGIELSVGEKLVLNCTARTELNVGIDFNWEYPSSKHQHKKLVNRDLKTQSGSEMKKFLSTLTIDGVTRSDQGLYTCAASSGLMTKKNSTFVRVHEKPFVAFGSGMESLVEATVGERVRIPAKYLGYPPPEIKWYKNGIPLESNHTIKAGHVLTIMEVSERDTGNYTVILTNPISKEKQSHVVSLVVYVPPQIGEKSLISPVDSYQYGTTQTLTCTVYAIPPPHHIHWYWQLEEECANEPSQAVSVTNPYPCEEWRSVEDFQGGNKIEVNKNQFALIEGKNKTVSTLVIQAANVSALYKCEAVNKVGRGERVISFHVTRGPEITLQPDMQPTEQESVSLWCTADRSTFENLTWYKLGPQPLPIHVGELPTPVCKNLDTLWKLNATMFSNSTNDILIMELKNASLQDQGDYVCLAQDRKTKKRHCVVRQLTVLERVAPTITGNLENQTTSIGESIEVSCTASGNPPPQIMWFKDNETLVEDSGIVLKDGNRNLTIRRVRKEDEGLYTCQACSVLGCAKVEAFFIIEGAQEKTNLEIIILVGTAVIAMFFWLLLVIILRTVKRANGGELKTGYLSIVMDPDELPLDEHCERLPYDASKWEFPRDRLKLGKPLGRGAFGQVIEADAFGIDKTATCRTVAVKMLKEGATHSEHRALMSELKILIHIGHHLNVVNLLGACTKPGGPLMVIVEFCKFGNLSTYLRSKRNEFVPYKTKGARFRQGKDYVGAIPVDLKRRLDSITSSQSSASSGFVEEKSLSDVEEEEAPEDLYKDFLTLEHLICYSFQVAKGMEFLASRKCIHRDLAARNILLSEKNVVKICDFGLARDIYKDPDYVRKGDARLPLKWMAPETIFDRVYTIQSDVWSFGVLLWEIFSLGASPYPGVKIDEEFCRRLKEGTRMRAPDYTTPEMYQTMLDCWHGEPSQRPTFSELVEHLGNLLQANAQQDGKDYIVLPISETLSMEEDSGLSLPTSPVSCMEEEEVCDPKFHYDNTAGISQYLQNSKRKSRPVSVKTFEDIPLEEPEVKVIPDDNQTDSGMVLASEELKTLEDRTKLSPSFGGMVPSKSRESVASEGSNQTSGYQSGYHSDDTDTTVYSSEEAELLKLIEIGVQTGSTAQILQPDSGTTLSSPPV

binding result: no binding
B1: Flt23K intraceptor (Flt23-KDEL; domains 2 and 3 of VEGFR-1 (Flt) fused at the C-terminus to the ER retention signal KDEL) (receptor)
chain: DTGRPFVEMYSEIPEIIHMTEGRELVIPCRVTSPNITVTLKKFPLDTLIPDGKRIIWDSRKGFIISNATYKEIGLLTCEATVNGHLYKTNYLTHRQTNTIIDVQISTPRPVKLLRGHTLVLNCTATTPLNTRVQMTWSYPDEKNKRASVRRRIDQSNSHANIFYSVLTIDKMQNKDKGLYTCRVRSGPSFKSVNTSVHIYDKAFITVKHRKKDEL
notes: Expressed inside transfected cells from pCMV.Flt23K, not purified; also called pCMV.Flt23K (expression plasmid); pCMV.Flt23
